{
  "source": "patent US20130052729A1",
  "about": "“METHOD FOR PREPARING INDUCED PARAXIAL MESODERM PROGENITOR (IPAM) CELLS AND THEIR USE” (priority 2011, published 2013)",
  "molecules": {"B1": {"name": "R-spondin2: secreted protein of the R-spondin family that activates Wnt signalling pathway; recombinant protein obtained commercially (R&D) (protein, UniProt Q6UXX9 22-243, looked up)", "R-spondin-2": "QGNRWRRSKRASYVSNPICKGCLSCSKDNGCSRCQQKLFFFLRREGMRQYGECLHSCPSGYYGHRAPDMNRCARCRIENCDSCFSKDFCTKCKVGFYLHRGRCFDECPDGFAPLEETMECVEGCEVGHWSEWGTCSRNNRTCGFKWGLETRTRQIVKKPVKDTILCPTIAESRRCKMTMRHCPGGKRTPKAKEKRNKKKKRKLIERAQEQHSVFLATDRANQ"}, "B2": {"name": "Dkk1: secreted extracellular Wnt antagonist, inhibitor of canonical Wnt signaling (protein, UniProt O94907 32-266, looked up)", "Dickkopf-related protein 1": "TLNSVLNSNAIKNLPPPLGGAAGHPGSAVSAAPGILYPGGNKYQTIDNYQPYPCAEDEECGTDEYCASPTRGGDAGVQICLACRKRRKRCMRHAMCCPGNYCKNGICVSSDQNHFRGEIEETITESFGNDHSTLDGYSRRTTLSSKMYHTKGQEGSVCLRSSDCASGLCCARHFWSKICKPVLKEGQVCTKHRRKGSHGLEIFQRCYCGEGLSCRIQKDHHQASNSSRLHTCQRH"}, "B3": {"name": "R-spondin3: secreted protein of the R-spondin family that activates Wnt signalling pathway; recombinant protein obtained commercially (R&D) (protein, UniProt Q9BXY4 22-272, looked up)", "R-spondin-3": "QNASRGRRQRRMHPNVSQGCQGGCATCSDYNGCLSCKPRLFFALERIGMKQIGVCLSSCPSGYYGTRYPDINKCTKCKADCDTCFNKNFCTKCKSGFYLHLGKCLDNCPEGLEANNHTMECVSIVHCEVSEWNPWSPCTKKGKTCGFKRGTETRVREIIQHPSAKGNLCPPTNETRKCTVQRKKCQKGERGKKGRERKRKKPNKGESKEAIPDSKSLESSKEIPEQRENKQQQKKRKVQDKQKSVSVSTVH"}},
  "key": {"Msgn1RepV mES cells": {"tested_on": "Msgn1RepV mES cells", "assay": "iPAM induction in Msgn1RepV reporter mES cells (YFP+ cells, flow cytometry)", "type": "cell-based, mouse", "conditions": "for effect on number of YFP+ cells: recombinant protein, 15% FBS, 4 days of differentiation", "description": "ES cells were trypsinized and plated at various densities in gelatin coated, feeder-free, 24 well plates directly in serum-based (15% FBS) or serum-replacement (15% KSR, Invitrogen) conditions supplemented with factors, and DMSO (Sigma). Recombinant proteins were obtained commercially (R&D) and stock solutions were prepared according to manufacturer's recommendation. The GSK-3β inhibitor CHIR99021 was purchased from Stemgent and prepared according to the manufacturer's recommendations. Fluorescent reporter analysis and image acquisition were done on a Zeiss Axiovert system.\nCell cultures were dissociated by trypsinization, analyzed by flow cytometry on a FACScalibur (BD Biosciences) according to YFP expression. Data were further analyzed with MoFlo software (Beckman Coulter) and FlowJo software.\nIn order to follow the differentiation of ES cells toward the first stage of paraxial mesoderm differentiation (ie presomitic fate), which represents the first step of skeletal muscle differentiation after acquisition of a mesodermal identity, we generated a transgenic mouse ES cell line harboring a fluorescent reporter specifically expressed in paraxial mesoderm progenitors. We used the promoter from the mouse Msgn1, a gene specific for the presomitic mesoderm, to drive the expression of Venus (a modified YFP).\nIn order to optimize the differentiation conditions for paraxial mesoderm progenitors, we developed a manual screening assay, testing candidate growth factors and drugs interfering with various signaling pathways on ES cells. The Msgn1RepV reporter cells were plated at a defined density in 24-well plates coated with gelatin (0.1%). Two basal culture media were selected: a DMEM based medium containing 15% fetal bovine serum (FBS, high serum) and a defined serum-free medium containing 15% KSR (Invitrogen/Gibco). These basal media were supplemented with candidate factors on day 0 of differentiation. Control and experimental conditions were cultured in parallel. Cells were left to differentiate for three to four days with medium changed on day 2 or 3. Cell cultures were analyzed on day 3 and 4 of differentiation visually and by flow cytometry for YFP+ population quantification."}, "Wnt signaling": {"tested_on": "Wnt signaling", "conditions": "cited from earlier work"}, "canonical Wnt signaling": {"tested_on": "canonical Wnt signaling", "assay": "BAT-luc luciferase reporter for canonical Wnt signaling in transfected ES cells", "type": "cell-based, mouse", "conditions": "Rspo3 10 ng/mL, low serum (1% FBS) medium"}, "HUES1 cells": {"tested_on": "HUES1 cells", "assay": "qRT-PCR of paraxial mesoderm progenitor markers in differentiating human ES cells", "type": "cell-based", "conditions": "3 to 10 days of culture in 15% FBS containing medium", "description": "Comparison of the expression of paraxial mesoderm progenitor markers Brachyury (A), PDGFRa (B), Tbx6 (C), Msgn1 (D) measured by Q RT-PCR in HUES1 undifferentiated or cultured in 15% FBS containing medium with or without Rspo3 for up to 10 days. Relative expression to undifferentiated HUES1 cells is shown (fold induction)\n(§1) Total RNA was extracted from ES cell cultures using a Trizol reagent (Invitrogen) or with the Rnaeasy plus mini-kit (Qiagen). RT-PCR was performed on 5 ng total RNA using QuantiFast SYBR Green RT-PCR Kit (Qiagen), appropriate primers and run on a LightCycler 480II (Roche). GAPDH was used as the internal control.\nNext, to confirm that R-spondin also induces iPAM cells from human ES cells differentiation, HUES1 cells were plated has single cells and differentiated in 15% FBS containing medium with or without Rspo3. qRT-PCR time course analysis for paraxial mesoderm progenitor markers expression was performed (FIG. 10)."}, "mouse ES cells": {"tested_on": "mouse ES cells", "assay": "Sequential differentiation of iPAM cells into paraxial mesoderm derivatives (staining, qRT-PCR)", "type": "cell-based", "conditions": "DMSO 0.5%", "description": "From day 0 to day 4, mouse ES cells were differentiated in presence of Rspo3, followed by 15% FBS medium until day 18. Cell types were identified by tissue-specific antibody staining, namely Muscle (Desmin, green), Endothelium (PECAM1/CD31, green) and Cartilage (Alcian Blue).\nES cells were cultured for 4 days in FBS15%, DMSO 0.5% and 10 ng/ml Rspo3 and then switched to FBS 15% or FBS 1% or FBS1% plus […] (Shh) and Retinoic acid (F1ShhRA) or plus Shh, Noggin and LiCl (F1SNLi). Cells were harvested the next day and analyzed by qRT-PCR for the dermal marker Dermol (A) and the muscle marker Myf5 (B). Graphs show fold enrichment.\nas §1, with “control. […]” for “control.”\nFor example, between day0 to day4, ES cells were exposed to optimized differentiating conditions (ie. R-spondin3 10 ng/mL, DMSO 0.5%, in 15% FBS basal medium). […] At day 18, cell cultures were fixed and analyzed by tissue specific histochemical staining or immunofluorescence (FIG. 8). […] Cells were harvested the next day and analyzed by qRT-PCR for the dermal marker Dermo 1 and the muscle marker Myf5 (FIG. 9)."}},
  "note": "Entries after “also recorded” stand apart in the source; their conditions may differ.",
  "data": [
    {"molecule": "C[S+](C)[O-]", "note": "[DMSO, Dimethyl sulfoxide]", "values": [
      {"measurement": "effect on YFP+ cells", "setting": "Msgn1RepV mES cells; 0.5% DMSO in FBS-containing medium, 4 days in culture", "value": "positive effect on iPAM induction; also recorded: increase of YFP+ cells"}
    ]},
    {"molecule": "Cc1c[nH]c(-c2cnc(NCCNc3ccc(C#N)cn3)nc2-c2ccc(Cl)cc2Cl)n1", "note": "[CHIR99021, reference compound]", "values": [
      {"measurement": "efficiency in inducing YFP+ cells compared with Rspo-3", "setting": "Msgn1RepV mES cells; after 4 days, 15% FBS medium", "value": "as efficient as Rspo-3"}
    ]},
    {"molecule": "B1", "values": [
      {"measurement": "effect on number of YFP+ cells", "setting": "Msgn1RepV mES cells", "value": "significantly increase the number of YFP+ cells"},
      {"measurement": "potency to activate Wnt signaling versus Rspo1 and 4", "setting": "Wnt signaling", "value": "more potent"}
    ]},
    {"molecule": "B2", "values": [
      {"measurement": "effect of supplementation of the medium on YFP+ induction", "setting": "Msgn1RepV mES cells; 15% FBS medium, 4 days", "value": "sharp decrease of YFP+ induction"}
    ]},
    {"molecule": "B3", "values": [
      {"measurement": "induction of YFP+ cells", "setting": "Msgn1RepV mES cells; 10 ng/mL, both in FBS based medium and KSR based medium", "value": "up to 70%"},
      {"measurement": "YFP+ population of the total population", "setting": "Msgn1RepV mES cells; 10 ng/mL, day 4 of differentiation, 15% FBS medium, flow cytometry", "value": "more than 70%"},
      {"measurement": "effect on number of YFP+ cells", "setting": "Msgn1RepV mES cells", "value": "significantly increase the number of YFP+ cells"},
      {"measurement": "luciferase (BAT-luc) activation, canonical Wnt response", "setting": "canonical Wnt signaling", "value": "strongly activated"},
      {"measurement": "luciferase (BAT-luc) activation, canonical Wnt response", "setting": "canonical Wnt signaling; listed as Rspo3", "value": "strongly activates the canonical Wnt response"},
      {"measurement": "expression of paraxial mesoderm progenitor markers Brachyury, PDGFRa, Tbx6 and Msgn1", "setting": "HUES1 cells", "value": "induction of the paraxial mesoderm progenitor markers; also recorded: Strong activation of Msgn1 and Tbx6"},
      {"measurement": "activation of dermal marker Dermo 1 and muscle marker Myf5 (qRT-PCR)", "setting": "mouse ES cells; 4 days Rspo3 10 ng/mL, FBS15%, then switched medium, harvested next day", "value": "Significant activation of these markers"},
      {"measurement": "tissue-specific staining of cultures at day 18", "setting": "mouse ES cells; day0 to day4 R-spondin3 10 ng/mL, 15% FBS, then differentiation media until day 18", "value": "positive for Cartilage (Alcian blue positive nodules), Muscles (Desmin positive fibers) and Endothelium (CD31/PECAM1)"},
      {"measurement": "potency to activate Wnt signaling versus Rspo1 and 4", "setting": "Wnt signaling", "value": "more potent"}
    ]}
  ]
}
